Laboratory results as given in publication PMC11348219.
“And” between values parts separate entries of the source, which are not always exact repeats. Equal values may be shown once.

Target: mutant-1a anti-A scFv
Assay: non-reducing SDS-PAGE; elution fraction EfA1 of nickel affinity chromatography on a Coomassie-stained 15% SDS-PAGE gel, non-reducing

B1: mutant-1a anti-A scFv (scFv, V domains shown)
VH: QVQLQQPGAELVKPGTSVKLSCKASGYNFTSYWINWVKLRPGQCLEWIGDIYPGSGITNYNEKFKSKATLTVDTSSSTAYMQLSSLASEDSALYYCAGQYGNLWFAYWGQGTLVTVSG
VL: DIQMTQTTSSLSASLGDRVTISCRASQDINNYLNWYQQKPDGTVKLLIHYTSRLHSGVPSRFSGSGSGTDYSLTISNLEQEDIATYFCQQGNTLPWTFGCGTKLEIK
In the case of B1, the stoichiometry N is reported as 2 and 3.
